Where no end group is shown, it is not given here. [ ]: non-standard residue; d: D form.
Assays:
[1] = test system: P. falciparum-infected erythrocytes; type: cell-based; details: FIG. 3A; read-out: IC50, competitive inhibition of cytoadherence
Experimental: (§1) The Gambian FCR-3 strain of P. falciparum was cultured according to the literature method [Trager, W. & J. Jensen (1976) Science 193:673-675]. Cultures were synchronized at the ring stage by sorbitol lysis of mature forms [Lambros, C. & J. P. Vanderberg (1980) J. Parasitology 65:418-20]. Knobless parasite cultures were produced from a knobby FCR-3 line and maintained as described previously [Crandall, I. E. et al. (1994) Cell Adhesion & Communication 2(6):503-510].
(§2) Cytoadherence assays were carried out as described previously [Udeinya et al. (1981), supra; Crandall et al. (1991), supra] except that BTS buffer (50 mM Bis Tris, 130 mM NaCl, pH 6.6) was substituted for BTC buffer (i.e. the Ca^+ was omitted from the cytoadherence assay buffer). Rosetting was measured as described previously [Crandall et al. (1994), supra].
(§3) In order to determine if the action of the antibody was due to the non-competitive removal of the sequence FSFCETNGLEYI [SEQ ID NO:44], the antibody's epitope, or whether it was the result of steric hindrance or induced conformational change of the protein associated with the antibody's binding, the effect of adding increased amounts of the peptide FSFCETNGLE [SEQ ID NO:26] to rosetting and cytoadherence assays was determined. […] FIG. 3A illustrates the results of adding the indicated peptides to the incubation medium of a cytoadherence assay. […]

[2] = test system: P. falciparum-infected erythrocytes (rosetting); type: cell-based; details: FIG. 3B; read-out: IC50, competitive inhibition of rosetting
Experimental: as §1, §2, §3

human band 3 protein = human band 3 protein (human, UniProt P02730); assay: cell-based or functional assay
CD36 = CD36 (Homo sapiens (Human), UniProt P16671); assay: cell-based or functional assay

FSFCETNGLE [Peptide 2f, FSFCETNGLE]
IC50 [1]: 4 µM
IC50 [2]: 3 µM

FSFCETNGLE [peptide 2f, FSFCETNGLE]
50% inhibition of sickle cell binding to HUVEC (human band 3 protein): 4 µg/mL
IC50 of inhibition of cytoadherence of P. falciparum-infected erythrocytes (human band 3 protein): 4 µM
IC50 of inhibition of rosetting of P. falciparum-infected erythrocytes (human band 3 protein): 3 µM

GHPLQKTY [peptide 3d, GHPLQKTY]
50% inhibition of sickle cell binding to HUVEC (CD36): 4 µg/mL

G[dH][dP][dL][dQ][dK][dT][dY] [D-isomer of peptide 3d]
50% inhibition of sickle cell binding to HUVEC (CD36): 4 µg/mL
